Assay results reported in US6830937 (Bristol-Myers Squibb, dated 2004).

Key:
CD28 receptor [1] = target: T1, CD28 receptor (human, UniProt P10747 19-220); assay: cell-based or functional assay
B7 antigen [2] = target: B7 antigen (UniProt P33681); assay: flow cytometry, direct staining of T51 cells after preincubation with unlabeled BB-1
B7 antigen [3] = target: B7 antigen (UniProt P33681); assay: cell-based or functional assay
B7 antigen [4] = target: B7 antigen (UniProt P33681); assay: flow cytometry, direct staining of T51 cells (B-LCL), no unlabeled BB-1
[5] = target: B7Ig fusion protein (human) [IgG part: P01857]; assay: competition of 125I-B7Ig binding to immobilized CD28Ig
B7 antigen [6] = target: B7 antigen (UniProt P33681); assay: flow cytometry, direct staining of Raji cells (BL), no unlabeled BB-1
B7 antigen [7] = target: B7 antigen (UniProt P33681); assay: flow cytometry, direct staining of Jijoye cells (BL), no unlabeled BB-1
B7 antigen [8] = target: B7 antigen (UniProt P33681); assay: flow cytometry, direct staining of Daudi cells after preincubation with unlabeled BB-1
B7 antigen [9] = target: B7 antigen (UniProt P33681); assay: flow cytometry, direct staining of Jijoye cells after preincubation with unlabeled BB-1
B7 antigen [10] = target: B7 antigen (UniProt P33681); assay: flow cytometry, direct staining of 5E1 cells (B-LCL), no unlabeled BB-1
B7 antigen [11] = target: B7 antigen (UniProt P33681); assay: flow cytometry, direct staining of Raji cells after preincubation with unlabeled BB-1
B7 antigen [12] = target: B7 antigen (UniProt P33681); assay: flow cytometry, direct staining of 5E1 cells after preincubation with unlabeled BB-1
B7 antigen [13] = target: B7 antigen (UniProt P33681); assay: flow cytometry, direct staining of Daudi cells (BL), no unlabeled BB-1
CD28 receptor [14] = target: T1, CD28 receptor; assay: flow cytometry, direct staining of phytohemagglutinin-stimulated T cells
CD28 receptor [15] = target: T1, CD28 receptor; assay: flow cytometry, direct staining of CD28+ CHO cells

For mAb 9.3 (Fab fragments), the [3H]-T incorporation by PHA blasts stimulated with B7+ CHO cells (40:1), 9.3 Fab at 10 µg/ml (CD28 receptor [1]) was 132000 cpm.

mAb BB-1 (anti-B7) (antibody) gave a mean fluorescence, +COLD (B7 antigen [2]) of 3 linear units, a [3H]-T incorporation by PHA blasts stimulated with B7+ CHO cells (40:1), BB-1 at 10 µg/ml (B7 antigen [3]) of 98300 cpm and an inhibition of adhesion of Jijoye cells to CD28+ CHO cells (B7 antigen [3]) of 60%. For the same molecule, the mean fluorescence, -COLD (B7 antigen [4]) was 16.4 linear units, the IC50 [5] was 140 nM and the mean fluorescence, -COLD (B7 antigen [6]) was 7.1 linear units. For the same molecule, the mean fluorescence, -COLD (B7 antigen [7]) was 17.8 linear units, the mean fluorescence, +COLD (B7 antigen [8]) was 2.8 linear units and the mean fluorescence, +COLD (B7 antigen [9]) was 2.8 linear units. For the same molecule, the mean fluorescence, -COLD (B7 antigen [10]) was 13 linear units, the mean fluorescence, +COLD (B7 antigen [11]) was 2.8 linear units and the mean fluorescence, +COLD (B7 antigen [12]) was 2.4 linear units. It also gave a mean fluorescence, -COLD (B7 antigen [13]) of 6.4 linear units.

“monoclonal antibody (mAb) 9.3 (anti-CD28)” gave a mean channel fluorescence (linear fluorescence units) (CD28 receptor [14]) of 11.3, a [3H]-T incorporation by PBL, +Anti-CD3, Exp. 1, mAb 9.3 (immob.) (CD28 receptor [1]) of 137000 cpm and a [3H]-T incorporation by PBL, +Anti-CD3, Exp. 1, mAb 9.3 (soln.) (CD28 receptor [1]) of 156000 cpm. It also gave a [3H]-T incorporation by PBL, +Anti-CD3, Exp. 2, mAb 9.3 (soln.) (CD28 receptor [1]) of 75800 cpm, a [3H]-T incorporation by PBL, -Anti-CD3, Exp. 1, mAb 9.3 (immob.) (CD28 receptor [1]) of 100 cpm and a [3H]-T incorporation by PBL, -Anti-CD3, Exp. 1, mAb 9.3 (soln.) (CD28 receptor [1]) of 300 cpm. For the same molecule, the [3H]-T incorporation by PBL, -Anti-CD3, Exp. 2, mAb 9.3 (soln.) (CD28 receptor [1]) was 400 cpm, the half-maximal inhibition of CD28-mediated adhesion (PM lymphoblastoid cells to CD28+ CHO cells) (CD28 receptor [1]) was 10 nM and the inhibition of adhesion of B7 transfected COS cells to CD28+ CHO cells when EDTA was omitted (CD28 receptor [1]) was 40%. The reduction of adhesion of T51 cells to CD28+ CHO cells by mAb 9.3 alone (no EDTA) (CD28 receptor [1]) was 62%, the reduction of adhesion of T51 cells to CD28+ CHO cells by mAb 9.3 plus EDTA (CD28 receptor [1]) was 93% and the mean channel fluorescence (linear fluorescence units) (CD28 receptor [15]) was 116.

B1: B7 antigen (ligand, UniProt P33681 35-288, looked up)
chain: VIHVTKEVKEVATLSCGHNVSVEELAQTRIYWQKEKKMVLTMMSGDMNIWPEYKNRTIFDITNNLSIVILALRPSDEGTYECVVLKYEKDAFKREHLAEVTLSVKADFPTPSISDFEIPTSNIRRIICSTSGGFPEPHLSWLENGEELNAINTTVSQDPETELYAVSSKLDFNMTTNHSFMCLIKYGHLRVNQTFNWNTTKQEHFPDNLLPSWAITLISVNGIFVICCLTYCFAPRCRERRRNERLRRESVRPV
For B1, the “adhesion of 51Cr-labeled T51 cells to CD28+ CHO cells relative to CD28- CHO cells, with EDTA” value (CD28 receptor [1]) was 17 fold and the “adhesion of 51Cr-labeled T51 cells to CD28+ CHO cells relative to CD28- CHO cells, without EDTA” value (CD28 receptor [1]) was 5.5 fold.
